Test results reported in patent US20200223915A1 (OSAKA UNIVERSITY, published 2020).

T1: wild-type human Claudin 9 protein (human, UniProt O95484 1-217)
T1 construct: Expressed on cells by retrovirus; Wording leaves open whether the entry is the protein or the DNA; also called hCLDN9
T1 sequence: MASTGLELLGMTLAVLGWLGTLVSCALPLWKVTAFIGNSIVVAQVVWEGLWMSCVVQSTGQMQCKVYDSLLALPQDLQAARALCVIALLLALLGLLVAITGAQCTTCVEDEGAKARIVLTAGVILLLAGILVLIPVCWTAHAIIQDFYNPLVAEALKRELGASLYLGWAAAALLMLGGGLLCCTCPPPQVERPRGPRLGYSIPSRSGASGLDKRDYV

T2: wild-type human Claudin 6 protein (human, UniProt P56747 1-220)
T2 construct: Expressed on cells by retrovirus; Wording leaves open whether the entry is the protein or the DNA; also called hCLDN6
T2 sequence: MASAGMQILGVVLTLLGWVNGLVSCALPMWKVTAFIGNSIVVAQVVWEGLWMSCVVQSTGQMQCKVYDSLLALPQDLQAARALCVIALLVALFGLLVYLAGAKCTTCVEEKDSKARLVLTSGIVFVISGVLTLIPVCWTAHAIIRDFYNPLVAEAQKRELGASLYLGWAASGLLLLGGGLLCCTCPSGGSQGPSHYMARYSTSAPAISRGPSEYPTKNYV

T3: wild-type human Claudin 7 protein (human, UniProt O95471 1-211)
T3 construct: Expressed on cells by retrovirus; Wording leaves open whether the entry is the protein or the DNA; also called hCLDN7
T3 sequence: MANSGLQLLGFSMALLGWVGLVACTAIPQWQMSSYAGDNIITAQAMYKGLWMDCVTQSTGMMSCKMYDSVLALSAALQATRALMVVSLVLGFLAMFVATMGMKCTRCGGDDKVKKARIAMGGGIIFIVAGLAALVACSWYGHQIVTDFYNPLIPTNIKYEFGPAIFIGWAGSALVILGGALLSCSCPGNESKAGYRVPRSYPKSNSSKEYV

T4: wild-type mouse Claudin 3 protein (mouse, UniProt Q9Z0G9 1-219)
T4 construct: Expressed on cells by retrovirus; Wording leaves open whether the entry is the protein or the DNA; also called mCLDN3
T4 sequence: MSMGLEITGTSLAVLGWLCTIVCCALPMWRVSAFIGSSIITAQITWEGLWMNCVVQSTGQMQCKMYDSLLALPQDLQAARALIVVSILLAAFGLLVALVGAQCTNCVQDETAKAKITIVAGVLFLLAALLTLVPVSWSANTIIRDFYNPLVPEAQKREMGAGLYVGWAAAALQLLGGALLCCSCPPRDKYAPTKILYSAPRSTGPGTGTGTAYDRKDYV

T5: wild-type mouse Claudin 1 protein (mouse, UniProt O88551 1-211)
T5 construct: Expressed on cells by retrovirus; Wording leaves open whether the entry is the protein or the DNA; also called mCLDN1
T5 sequence: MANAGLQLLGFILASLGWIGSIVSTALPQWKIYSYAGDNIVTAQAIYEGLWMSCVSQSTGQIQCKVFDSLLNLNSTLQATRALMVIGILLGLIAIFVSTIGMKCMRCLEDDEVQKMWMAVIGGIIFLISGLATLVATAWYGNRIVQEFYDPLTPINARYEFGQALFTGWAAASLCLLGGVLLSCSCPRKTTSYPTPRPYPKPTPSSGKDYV

T6: wild-type human Claudin 4 protein (human, UniProt O14493 1-209)
T6 construct: Expressed on cells by retrovirus; Wording leaves open whether the entry is the protein or the DNA; also called hCLDN4
T6 sequence: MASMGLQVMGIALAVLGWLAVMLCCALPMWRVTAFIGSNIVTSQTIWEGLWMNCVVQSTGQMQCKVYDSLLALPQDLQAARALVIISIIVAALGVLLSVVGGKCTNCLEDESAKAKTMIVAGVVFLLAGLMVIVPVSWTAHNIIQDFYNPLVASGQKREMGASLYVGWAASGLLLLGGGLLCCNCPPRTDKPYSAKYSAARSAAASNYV

T7: wild-type mouse Claudin 2 protein (mouse, UniProt O88552 1-230)
T7 construct: Expressed on cells by retrovirus; Wording leaves open whether the entry is the protein or the DNA; also called mCLDN2
T7 sequence: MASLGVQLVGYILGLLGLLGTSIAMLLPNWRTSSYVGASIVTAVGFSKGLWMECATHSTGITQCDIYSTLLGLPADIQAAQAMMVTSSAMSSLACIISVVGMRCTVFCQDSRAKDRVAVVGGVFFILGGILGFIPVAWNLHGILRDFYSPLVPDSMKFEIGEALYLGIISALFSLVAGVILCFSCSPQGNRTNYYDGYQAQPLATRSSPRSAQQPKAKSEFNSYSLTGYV

T8: wild-type human Claudin 3 protein (human, UniProt O15551 1-220)
T8 construct: Expressed on cells by retrovirus; Wording leaves open whether the entry is the protein or the DNA; also called hCLDN3
T8 sequence: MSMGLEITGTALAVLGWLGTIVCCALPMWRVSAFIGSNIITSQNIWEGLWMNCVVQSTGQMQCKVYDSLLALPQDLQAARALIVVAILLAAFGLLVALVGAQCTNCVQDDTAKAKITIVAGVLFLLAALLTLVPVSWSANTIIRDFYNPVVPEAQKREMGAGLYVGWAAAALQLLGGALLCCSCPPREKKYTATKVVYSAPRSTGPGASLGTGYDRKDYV

T9: wild-type human Claudin 1 protein (human, UniProt O95832 1-211)
T9 construct: Expressed on cells by retrovirus; also called hCLDN1
T9 sequence: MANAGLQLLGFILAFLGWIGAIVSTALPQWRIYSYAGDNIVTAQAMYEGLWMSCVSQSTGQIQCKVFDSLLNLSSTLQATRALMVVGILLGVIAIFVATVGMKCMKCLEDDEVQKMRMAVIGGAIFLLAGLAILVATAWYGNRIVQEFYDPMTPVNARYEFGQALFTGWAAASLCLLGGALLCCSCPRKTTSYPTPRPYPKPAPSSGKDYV


What was measured:
Experiment in all cases: FACS on Claudin-expressing cells
[1] = target: T1, wild-type human Claudin 9 protein
Experimental: (§1) The cells were washed three times with 0.2% BSA-TBS, and then mixed with 100 μL of a secondary antibody solution (FITC conjugated goat anti-mouse IgG+IgM in 1% BSA-PBS (1:400)), followed by a reaction at 4° C. for 1 hour. The cells were washed with 0.2% BSA-TBS, and FACS analysis (FACS caliber, BD Bioscience) was performed.

[2] = target: T2, wild-type human Claudin 6 protein
Experimental: as §1

[3] = target: T3, wild-type human Claudin 7 protein
Experimental: as §1

[4] = target: T4, wild-type mouse Claudin 3 protein
Experimental: as §1

[5] = target: T5, wild-type mouse Claudin 1 protein
Experimental: as §1

[6] = target: T6, wild-type human Claudin 4 protein
Experimental: as §1

[7] = target: T7, wild-type mouse Claudin 2 protein
Experimental: as §1

[8] = target: T8, wild-type human Claudin 3 protein
Experimental: as §1

[9] = target: T9, wild-type human Claudin 1 protein
Experimental: as §1

binding result [1]	binding result [2]	binding result [3]	binding result [4]	binding result [5]	binding result [6]	binding result [7]	binding result [8]	binding result [9]	Binder
no binding (tested: 10 µg/mL)	no binding (tested: 10 µg/mL)	no binding (tested: 10 µg/mL)	no binding (tested: 10 µg/mL)	no binding (tested: 10 µg/mL)	no binding (tested: 10 µg/mL)	no binding (tested: 10 µg/mL)	no binding (tested: 10 µg/mL)	no binding (tested: 10 µg/mL)	antibody 2B1 (antibody, IgG2a, V domains shown, also called antibody B) VH: QVQLQQPGAELVKPGASVKLSCKASGYTFTTFWIHWVKQRPGRGLEWIGRIAPYSGGTTYNEKFKSKATLTVDRPSTTAYMQLISLTSEDSAVYYCARWDFTYGSNLDYWGQGTTLTVSS VL: DIVMTQSQKFMSTSVGDRVSIPCKASQNVRTAVAWYQQKPGQSPKALIYLASNRHTGVPDRFTGSGSGTDFTLTISNVQSEDLADYFCLGHWDYPYTFGGGTKLEIKR
no binding (tested: 10 µg/mL)	no binding (tested: 10 µg/mL)	no binding (tested: 10 µg/mL)	no binding (tested: 10 µg/mL)	no binding (tested: 10 µg/mL)	no binding (tested: 10 µg/mL)	no binding (tested: 10 µg/mL)	no binding (tested: 10 µg/mL)	no binding (tested: 10 µg/mL)	antibody 2B12 (antibody, IgG2a, V domains shown, also called antibody A) VH: QVQLQQSGAELARPGASVKLSCKASGYTFTRFGMSWVKQRTGQGLEWIGEIYPGSGDTYYSENFKGKATLTADKSSGTAYMELRSLTSEDSAVYFCARWGIYYGNPYAMDYWGQGTSVTVSS VL: DIVMTQAAPSVPVTPGESVSISCRSSKSLLHSNGNTYLYWFLQRPGQSPQLLIYRMSNLASGVPDRFSGSGSGTAFTLRISRVEAEDVGVYYCLQHLEYPFTFGSGTKLEIKR
